The target of test [1] is T1, IL-33 mutant protein S60A (human, UniProt O95760 112-270).
T1 construct: Prokaryotic expression; also called 560A
T1 chain: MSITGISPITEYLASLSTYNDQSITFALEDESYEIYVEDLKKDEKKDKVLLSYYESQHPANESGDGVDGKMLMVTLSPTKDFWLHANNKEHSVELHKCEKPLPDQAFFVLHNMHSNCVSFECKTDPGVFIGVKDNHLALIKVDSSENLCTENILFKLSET
Description: ELISA as Example 9; row S60A against WT-1. The method, then:
(§1) SA protein was diluted to 2 μg/mL to coat ELISA plate at 100 μL/well overnight at 4° C. The plate was washed with PBST (PBS containing 0.05% Tween20) for 3 times, and blocked with 2% BSA prepared in PBS at 200 μL/well, at room temperature for 2 h. After the plate was washed twice with PBST, IL-33-his-biotin protein was diluted to 1 μg/mL with 1% BSA prepared in PBST, and was added to ELISA plate at 100 μL/well. The plate was incubated at room temperature for 1 h, and each monoclonal antibody was diluted with 1% BSA prepared in PBST in a 3-fold gradient. The highest concentration of antibody was 10 μg/mL, and the antibody was diluted for 12 gradients. Each diluted monoclonal antibody was added to ELISA wells with 100 μL/well, and the plate was incubated at room temperature for 1 h. Each sample was added to duplicate wells in parallel. The plate was washed with PBST for 3 times, and HRP-anti human IgG Fc secondary antibody prepared with PBST was diluted at an appropriate ratio, and was added to ELISA wells at 100 μL/well. […] Each reaction solution was shaken uniformly and OD450 nm was read on a microplate reader. The data was analyzed and EC₅₀ was calculated.
(§2) Subsequently, according to the experimental method of Example 9, the affinity of the above mutant proteins to 874F7-Hu1 was determined, and IL-33 proteins (WT-1, WT-2, WT-3, and WT-4) without any mutation were set as controls.

Test [2] deals with T2, IL-33 mutant protein K70A (human, UniProt O95760 112-270).
T2 construct: Prokaryotic expression
T2 chain: T1 chain with A60S, K70A
In words: ELISA as Example 9; row K70A. The method, then: as §1, §2
On the technique in general: ELISA stands for enzyme-linked immunosorbent assay.

Test [3] addresses T3, IL-33 protein without any mutation (WT) (human, UniProt O95760 112-270).
T3 construct: Control of the alanine scan (four runs WT-1 to WT-4); also called WT-1; WT-2
T3 sequence: T1 chain with A60S
Description: ELISA as Example 9; row WT-2. The procedure:
as §1, §2

The target of the next test is T4, Human IL-33-his (human, UniProt O95760 112-270, biotinylated with EZ-Link NHS-Biotin where used as IL-33-his-biotin).
T4 construct: Used plain (SPR, cell assays) and biotinylated (ELISA); also called IL-33-his-biotin
T4 sequence: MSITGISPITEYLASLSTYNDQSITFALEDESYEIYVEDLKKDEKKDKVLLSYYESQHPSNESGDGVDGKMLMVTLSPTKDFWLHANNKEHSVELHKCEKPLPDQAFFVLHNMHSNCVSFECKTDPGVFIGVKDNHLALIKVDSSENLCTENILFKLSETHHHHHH
In words: SPR Biacore 8K as Example 14, antibody captured, antigen as analyte. The procedure:
A chip with covalently coupled Protein A/G (purchased from GE Healthcare, catalog number BR-1005-30) was used to capture each antibody to be tested, and the relevant operating parameters were as follows: The antibody concentration was […], the contact time was 75 s, the flow rate was […], and the regeneration contact time was 30 s. The IL-33-his antigen was diluted with HBS-EP pH7.4 buffer solution (purchased from GE Healthcare, catalog number BR-1006-69). The maximum concentration was 50 nM, and diluted to 0.39 nM by two-fold dilution. Duplicate wells and 0 concentration point well were set, and 6M guanidine hydrochloride solution was used as the regeneration buffer. The sample was injected on Biacore 8K according to the following parameters, the binding time was 180 s, the dissociation time was 900 s, the flow rate was 30 μL/min, and the regeneration contact time was 30 s. After running, Biacore 8K Evaluation Software was used to analyze the data according to the “1:1 binding kinetics model”, and the binding kinetics parameters of each antibody to IL-33 were obtained.
The experimental methods were referred to Example 14, in which the antigens cynomolgus IL-33 protein (purchased from Sino catalog number 90912-CNAE) and mouse IL-33 protein (purchased from R&D, 3626-ML-010/CF) were used, and human IL-33 protein was used as the control. Both 864F3-Hu4 and 874F7-Hu1 cross-react with cynomolgus IL-33 protein, and are consistent with the characteristics of each antibody binding to human IL-33 protein.
(SPR reads the build-up and loss of mass on a sensor chip optically.)

In test [4] the target is T1, IL-33 mutant protein S60A. Description: ELISA by the method of Example 9 with the IL-33 mutant protein on the plate, 874F7-Hu1 in serial dilution, HRP anti-human IgG Fc, absorbance 450 nm.
For test [5], the target named is T5, IL-33 mutant protein E55A (human, UniProt O95760 112-270).
T5 construct: Prokaryotic expression
T5 chain: T1 chain with E55A, A60S
Description: ELISA as Example 9; row E55A against WT-2. The method, then:
as §1, §2

Substitutions are numbered along the chain they refer to.

B1: 874F7-Hu1 (antibody, human IgG4 S228P, kappa)
heavy: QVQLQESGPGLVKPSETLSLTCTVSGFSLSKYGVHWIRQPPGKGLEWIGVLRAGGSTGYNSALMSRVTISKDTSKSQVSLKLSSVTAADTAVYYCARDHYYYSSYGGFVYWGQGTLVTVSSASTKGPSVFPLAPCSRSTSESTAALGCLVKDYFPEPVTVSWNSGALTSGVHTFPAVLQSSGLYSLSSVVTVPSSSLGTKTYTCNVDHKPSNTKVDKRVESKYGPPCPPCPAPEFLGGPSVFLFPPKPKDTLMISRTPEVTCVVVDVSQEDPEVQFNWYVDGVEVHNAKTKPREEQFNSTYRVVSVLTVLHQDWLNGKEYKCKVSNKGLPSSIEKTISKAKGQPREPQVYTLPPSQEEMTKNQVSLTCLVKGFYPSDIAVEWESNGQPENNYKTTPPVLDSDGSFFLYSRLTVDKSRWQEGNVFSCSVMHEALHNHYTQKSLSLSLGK
light: DIQMTQSPSSVSASVGDRVTITCLASQTIGAWLAWYQQKPGKSPKLLIYAATRLADGVPSRFSGSGSGTDFTLTISSLQPEDFATYYCQQLDSSPYTFGQGTKVEIKRTVAAPSVFIFPPSDEQLKSGTASVVCLLNNFYPREAKVQWKVDNALQSGNSQESVTEQDSKDSTYSLSSTLTLSKADYEKHKVYACEVTHQGLSSPVTKSFNRGEC
notes: also called 874F7-Hul; humanized antibody 874F7-Hu1
The EC50 is the concentration that produces a half-maximal response. A higher EC50 goes with weaker potency. A word on the Kd: it is the concentration at which binding is half-saturated. A low value points to tighter binding. Broadly, the koff is the rate constant with which the complex falls apart. Read a high koff as a short-lived complex. One may read the kon as the second-order rate constant of association. Lower therefore signals slower complex formation. As a reminder, the EC50 (read off the curve) is the concentration needed to bring the measured effect to its halfway point. Low values mean a more potent agent, high ones a less potent agent. Take B1: the Affinity decline ratio in test [1] was 23.2 fold. Moreover, the response in test [2] was half-maximal at 0.11 nM (EC50). The EC50 in test [3] is 0.13 nM. In the test with Human IL-33-his, this molecule came in with a dissociation constant (Kd) of 1.13 nM, a koff of 0.000204 s⁻¹ and an on-rate constant (kon) of 180000 M⁻¹ s⁻¹. Further, in test [4], the “EC50 (read off the curve)” value was ~1 nM. For the same molecule, in test [5], the Affinity decline ratio is 2.5 fold.

The values are drawn from patent US20230399394A1 (SUNSHINE GUOJIAN PHARMACEUTICAL SHANGHAI, published 2023).
